From the supplement of paper PMC10567573 come the findings set out here.

± gives the standard deviation.

A short description of the data set: protein stability index of a GFP-peptide fusion (GPS, HEK-293T) (PSI 1-6); higher = more stable. The following applies: c terminus: a fixed tail appended.
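Also: 24-mer peptide tiles fused after GFP, lentivirally expressed, FACS-sorted into six equal bins by GFP/DsRed ratio, decoded by Illumina sequencing, PSI is the read-weighted mean bin number.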

Regarding REPDWGDGDAPGSLLPAQVAACAQ [CEBPD], the protein stability index is 5.04 ± 0.28 (treatment: DMSO) and 4.99 ± 0.47 (treatment: MLN4924 1 uM, 8 h).
On the same counts, the results for KLGALLSRCRKLVEYFQQSAVAMY [ZBED1] are 3.12 ± 0.31 and 3.1 ± 0.21.
With DSSEEKHLEEPGETQNAFLNERKQ [CHGB], the protein stability index is, setting by setting: (treatment: DMSO) 5.5 ± 0.41; (treatment: MLN4924 1 uM, 8 h) 5.41 ± 0.36.
As to AMEPEPAPAPAPEEWLDILGNGLL [FKBP8], the protein stability index runs as follows: (treatment: DMSO) 4.47 ± 0.1; (treatment: MLN4924 1 uM, 8 h) 4.59 ± 0.41.
On the same counts, the results for YNLTILDCLQGIRKGLQHGFFDFE [CDC14A] are 2.68 ± 1.1 and 2.71 ± 0.89.
On the same counts, the results for VRSQTLPRTSEAQARKALFEKWEQ [SMTNL2] are 3.98 ± 0.28 and 4.16 ± 0.47.
On the same counts, the results for EDWLSHALSRKKSQGLAREQHAGT [FBF1] are 3.9 ± 0.23 and 4.04 ± 0.14.
For SIQWPGKRSSRRVQRHNSFSPNSP [NECAB1], the protein stability index was determined as 3.54 ± 0.27 (treatment: DMSO) and 3.62 ± 0.23 (treatment: MLN4924 1 uM, 8 h).
On the same counts, the results for ASPSSSVRLGSFRSPRAGAGALLR [PRPH] are 3.65 ± 0.26 and 3.81 ± 0.19.
The matching figures for DRKARKPLVEKKRRARINESLQEL [HES6]: 4.37 ± 0.22 and 4.71 ± 0.13.
On the same counts, the results for SADRLTVRCGLLGSLGPVPVLRFD [TRIM14] are 2.12 ± 0.31 and 2.25 ± 0.31.
Regarding TEFKELDGLREALANLRGLSEEER [CCDC89], the protein stability index was 5.05 ± 0.28 (treatment: DMSO) and 4.85 ± 0.28 (treatment: MLN4924 1 uM, 8 h).
The matching figures for EDEDKSEPEQTGADAAEDEEVDVT [RBBP5]: 5.66 ± 0.28 and 5.73 ± 0.31.
Turning to LDKQAKLSRAYDGTTYLPGIVGLN [USP39], the protein stability index runs as follows: (treatment: DMSO) 3.15 ± 0.39; (treatment: MLN4924 1 uM, 8 h) 3.1 ± 0.2.
On the same counts, the results for PPLTRQIAVKTLGIGKNVICDRTA [GFOD1] are 3.71 ± 0.22 and 3.92 ± 0.082.
On the same counts, the results for GCFTLPRSEPIRPIDPAAWVSHTA [DVL3] are 2.81 ± 0.25 and 3 ± 0.42.
In the case of VPVRRPARRRQSAGPWPRPKGSLS [RASAL3], the protein stability index runs as follows: (treatment: DMSO) 4.73 ± 0.25; (treatment: MLN4924 1 uM, 8 h) 4.68 ± 0.23.
On the same counts, the results for EINPPPHTMEEEEDDDWGEDTTEE [EIF5] are 5.52 ± 0.28 and 5.34 ± 0.48.
The matching figures for TVVREVIFLGFSSLARLQQLLFVI [OR10K2]: 3.15 ± 0.73 and 2.87 ± 0.55.
The matching figures for RCGVGVSVLDDLLYAVGGHDGSSY [KLHL20]: 2.36 ± 0.38 and 2.13 ± 0.42.
For LWASQREKEVLRRERAVEWRERAV [ZBED2], the protein stability index (treatment: DMSO) was 3.15 ± 0.44 and the protein stability index (treatment: MLN4924 1 uM, 8 h) was 3.38 ± 0.11.
On the same counts, the results for GVGGAERLVLDAALALQARGCSVK [ALG2] are 3.22 ± 0.24 and 3.28 ± 0.48.
The matching figures for PLGVLQAIAMYFLPPSPRFLVMKG [SLC2A12]: 2.64 ± 0.98 and 2.88 ± 1.3.
The matching figures for PGAGDPAPGIGPPEPWPGGCTGDE [MYCL]: 5.38 ± 0.057 and 5.16 ± 0.43.
With DALLGIDDLETMPDDLLTTLDDTC [ATF4], the protein stability index came to 5.17 ± 0.16 (treatment: DMSO) and 5.05 ± 0.34 (treatment: MLN4924 1 uM, 8 h).
The matching figures for EIELQAQHNLRYSLENTLTESEAR [KRT33B]: 4.7 ± 0.2 and 4.48 ± 0.18.
On the same counts, the results for KPKIEDVGSDEEDDSGKDKKKKTK [HSP90AB1] are 5.54 ± 0.24 and 5.56 ± 0.12.
The matching figures for KLHYPELYVLKGGYKEFFMKCQSY [CDC25A]: 2.42 ± 0.5 and 2.04 ± 0.33.
Turning to SSIGRLFGKKEKGRLIQLSRDGAT [PPFIA4], the protein stability index runs as follows: (treatment: DMSO) 3.19 ± 0.48; (treatment: MLN4924 1 uM, 8 h) 3.38 ± 0.54.
The matching figures for LTQPLQGGTPHCEPCQLPSESPGS [DNAAF3]: 5.17 ± 0.2 and 5.12 ± 0.12.
On the same counts, the results for RLMSFRPICSANHKESKMTIFEKE [CRYBA1] are 3.14 ± 0.16 and 3.5 ± 0.21.
The matching figures for QAQIELRLLELMNQHDTEMKYYIV [DYRK1B]: 2.24 ± 0.23 and 2.49 ± 0.47.
With DSVSVNDIDLSLYIPRDVDETGIT [ZC3H15], the protein stability index was determined as 3.76 ± 0.15 (treatment: DMSO) and 4.36 ± 0.11 (treatment: MLN4924 1 uM, 8 h).
On the same counts, the results for LFTSFQEPPCEGNTFFCHSNMCIN [NETO1] are 2.14 ± 0.42 and 2.13 ± 0.41.
On the same counts, the results for RQDPRPHGPQLPTGIEGNWGRLLE [ZBED2] are 3.68 ± 0.2 and 3.54 ± 0.32.
The matching figures for YDPNYMSPFAQFACDNGLNVRGGK [PPTC7]: 3.63 ± 1 and 4.11 ± 0.43.
